Laboratory results as given in US9896489B2, “Family of synthetic polynucleotide-binding peptides and uses thereof” (Eastern Virginia Medical School, priority 2012, dated 2018).

How the values were obtained:
H82 cells = H82 cells treated with TZIP peptide as for cell counts
Experimental: Referring to FIG. 7, a subset of H82 cells was treated with the TZIP peptide and the dye trypan blue, which is excluded from live cells. The H82 cells were otherwise treated as previously described and H82 cells used as a control were untreated. The percentages of living cells are represented by solid lines, and the percentages of dead cells are represented by dotted lines.

[1] = tested on: Tat transactivation of the HIV-1 LTR; assay: Tat transactivation of HIV-1 LTR-luciferase in U-87 MG cells; type: cell-based; settings: peptide added exogenously to the medium; clade B LTR and Tat
Experimental: The TZIP peptide's effect on Tat's ability to transactivate the HIV-1 LTR was tested. In this experiment, U-87 MG cells were transfected with the clade B HIV-1 LTR coupled to luciferase. They were also transfected to express Tat, clade B. In the absence of Tat transfection there is no luciferase activity. […] The results in FIG. 9B document inhibition of the HIV-1 LTR at low concentrations of peptide, levels which would be acceptable in humans.

[2] = tested on: normal human epithelial cells; assay: Growth of normal epithelial cells treated with TZIP peptide; type: cell-based
KG-1C cells = type: cell-based
H82 SCLC cells = assay: H82 SCLC cell growth, hemocytometer cell counts; type: cell-based; settings: 10^−12 M peptide
Experimental: (§1) The peptide was tested against SCLC cells in culture. The cell lines included H82, H146, and controls. The H82 cell line has amplified c-MYC genes and H146 has increased levels of expression of c-MYC. The controls were normal epithelial cells and HeLa cells (a cervical cancer cell line with no known changes in c-MYC).
H82 SCLC cells were grown in suspension in small cell culture wells in RPMI medium with 10% fetal bovine serum. At time 0, the TZIP peptide was added to the medium at a final concentration of 10^−12 M. Control cells received no peptide. The TZIP peptide was added as a stock solution of 200 μg in 200 μL of deionized water.

[3] = tested on: FXS ssDNA (G-rich trinucleotide DNA repeats at FMR1); assay: Electrophoretic mobility shift assay with FXS ssDNA; type: binding
Excerpt: A GE Microspin GST purification module was used to purify GST-tagged Purα and Purβ from bacterial lysate. Polyacrylamide gel electrophoresis with SDS-Page gels and molecular markers were used to verify that GST, Purα, and Purβ were expressed and purified. Expressed proteins were detected using antibodies against Purα and Purβ, including monoclonal mouse anti-Pur antibody developed in Johnson laboratory (clone 10B12) and polyclonal antibody against Purβ (Abcam). Polyacrylamide gel electrophoresis with TBE buffer was used for gel-mobility shift assay. Infrared-labeled oligonucleotides representing G-rich trinucleotide DNA repeats at FMR1 in patients with Fragile X Syndrome (FXS) were custom ordered and are referred to herein as FXS ssDNA. Infrared-labeled oligonucleotide substrates in agarose and polyacrylamide gels were detected through the use of the Odyssey (LICOR) instrumentation and software. […] When Purα and Purβ are combined (FIG. 17), by increasing the amount of Purβ, the DNA is shifted more to the top of the gel. Therefore, there is more binding of the proteins to the DNA. […] In FIG. 19, TZIP enhances the mobility shift of ssDNA FXS in the presence of Purα.

SCLC cells = assay: Growth of SCLC cell lines treated with TZIP peptide; type: cell-based
Experimental: as §1

HeLa cells = assay: HeLa cell growth, hemocytometer cell counts; type: cell-based; settings: treated as described for H82 cells
Experimental: This was expected based on the lack of changes in c-MYC in HeLa cell lines. HeLa cells were grown in suspension and either treated or untreated with the TZIP peptide as described above for the H82 cells. Points were taken at different times post treatment, and cells were counted using a hemocytometer. […] This difference was expected, as HeLa cells differ from SCLC cells in many aspects of tumor suppressor gene products and presence of oncogenes.

[4] = tested on: human prostate cancer cell lines; assay: Growth of prostate cancer cells treated with TZIP peptide; type: cell-based
U-87 MG cells = type: cell-based
[5] = tested on: ALS ssDNA (GGGGCC hexanucleotide repeat expanded at C9ORF72); assay: Electrophoretic mobility shift assay with ALS ssDNA; type: binding
Experimental: Infrared oligonucleotides representing a GGGGCC hexanucleotide repeat expanded at C9ORF72 in ALS patients were custom ordered and are referred to as ALS ssDNA. 4% polyacrylamide gel electrophoresis was performed using IR-labeled oligonucleotides and imaged using the Li-Cor Odyssey IR imaging instrumentation and software.
Electrophoretic Mobility Shift Assay-Various combinations of Purα, Purβ, TZIP, and IR-labeled oligonucleotides were prepared in the 5× Johnson binding buffer (Bergemann, Andrew D and Johnson, Edward M (1992), The HeLa Pur Factor Binds Single-Stranded DNA at a Specific Element Conserved in Gene Flanking Regions and Origins of DNA Replication. Molecular and Cellular Biology, vol 12:3 (1257-1265), incorporated by reference herein in its entirety), adjusted to 5 mM DTT, 5 mM EDTA, and 0.5% Tween 20. 4% polyacrylamide gel electrophoresis was performed on samples and imaged with the Li-Cor Odyssey instrumentation and software. Densitometry was performed on the DNA concentration course experiments using the Li-Cor Odyssey software.
A Kd value obtained for Purβ was complex and not readily interpretable.

B1: novel synthetic Purα agonist peptide, 89 aa, SEQ ID NO: 1, with cell transport sequence YARAKRRQARRQIR (peptide)
chain: LASTFVTRDNKRYFMDLKENQRGRFMRVSQVGTRGYRNSLTVSYSVAWLEFRTHLCKLIDEYAKLQYARAKRRQARRQIRQQQQQQQEE
cell killing (living/dead cells, trypan blue) (H82 cells): killed TZIP-treated H82 cells | inhibition of Tat transactivation (luciferase) [1]: transactivation is inhibited over a broad range of low concentrations | effect of treatment on normal cells [2]: did not show any significant effects | effects on growth kinetics or morphology (KG-1C cells): did not display any effects on growth kinetics or morphology | growth of treated cells (cell counts) (H82 SCLC cells; after three days): no further growth of the treated cancer cells was evident | growth inhibition (cell counts) (H82 SCLC cells; one day post treatment): inhibitory effects of the peptide were evident | binding / mobility shift of ssDNA FXS (qualitative) [3]: tightly binds the FXS trinucleotide expanded repeat | order of binding ssDNA FXS [3]: TZIP>Purα>Purβ | effect of TZIP on Purα binding to ssDNA FXS ([3]; in the presence of Purα): greatly stimulates Purα binding | inhibitory effect on growth, compared with other cell types (SCLC cells): consistently showed the greatest inhibitory effects | effect on cell growth (HeLa cells): little effect on the growth of HeLa cells | growth inhibition [4]: effective at inhibiting growth of prostate cancer cells | effects on growth kinetics or morphology (U-87 MG cells): did not display any effects on growth kinetics or morphology | binding of ALS repeat (qualitative) ([5]; DNA concentration courses): strongly bind the ALS repeat in low concentrations | effect of TZIP on Purα binding to ALS ssDNA ([5]; Purα and TZIP mixed): alter the binding activity of Purα | effect of TZIP on Purβ binding to ALS hexanucleotide repeat ([5]; Purβ and TZIP mixed): greatly stimulates binding of Purβ | Kd ([5]; densitometry of DNA concentration course): 0.55 nM | concentration at which TZIP functions cooperatively with Purα to enhance binding to the GGGGCC repeat ([5]; with Purα): less than 1 μM
